Test results taken from article PMC10933344, “A lncRNA Dleu2-encoded peptide relieves autoimmunity by facilitating Smad3-mediated Treg induction” (EMBO Reports, 2024).
Where no end group is shown, it is not given here.

Target: T1, Smad3, recombinant (pET28a) (UniProt Q8BUN5 1-425)
T1 construct: the His tag is inferred from the vector only; also called free Smad3; source: bacterial overexpression (pET28a), purified
Test: BLI; Octet RED96; 50 ug/ml Biotin-labeled Dleu2-17aa immobilised on streptavidin biosensors; 100 mM Tris-HCl pH 8.0, 20 mM MgCl2, 200 mM KCl, 0.1 mg/mL BSA; Smad3 at 1.67-53.3 uM, association 800 s, dissociation in DPBS (0.5% BSA) 180 s; RT
Details: both partners purified

T1 sequence (Q8BUN5 whole entry): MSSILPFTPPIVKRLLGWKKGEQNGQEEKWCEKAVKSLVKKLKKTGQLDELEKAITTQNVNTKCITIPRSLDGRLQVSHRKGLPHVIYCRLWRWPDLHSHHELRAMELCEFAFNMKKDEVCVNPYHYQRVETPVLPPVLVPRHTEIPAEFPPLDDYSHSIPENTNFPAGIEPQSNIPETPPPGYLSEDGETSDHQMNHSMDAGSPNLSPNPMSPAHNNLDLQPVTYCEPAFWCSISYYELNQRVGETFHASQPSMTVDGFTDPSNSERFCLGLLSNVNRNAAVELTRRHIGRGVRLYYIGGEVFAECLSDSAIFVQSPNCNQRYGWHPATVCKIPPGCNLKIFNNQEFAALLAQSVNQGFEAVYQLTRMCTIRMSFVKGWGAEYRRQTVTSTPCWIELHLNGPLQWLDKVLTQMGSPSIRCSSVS

- Kd: 2430 nM
B1: Biotin-labeled Dleu2-17aa (peptide)
peptide: MLGRRARRRGRGRRRPA
modifications: also: biotin-labeled, position not given here
notes: Dleu2-17aa, 17-amino-acid micropeptide encoded by a short ORF in the first exon of the mouse lncRNA Dleu2; also called Biotin-Dleu2-17aa; biotinylated Dleu2-17aa
